Experimental data reported in IntAct's records for PubMed 16452984.

B1: Rap guanine nucleotide exchange factor 4 (Mus musculus), Q9EQZ6-3 (parent)
chain: MVAAHAAHSQSSAEWIACLDKRPLERSSEDVDIIFTRLKGVKAFEKFHPNLLRQICLCGYYENLEKGITLFRQGDIGTNWYAVLAGSLDVKVSETSSHQDAVTICTLGIGTAFGESILDNTPRHATIVTRESSELLRIEQEDFKALWEKYRQYMAGLLAPPYGVMETGSNNDRIPDKENVPSEKILRAGKILRIAILSRAPHMIRDRKYHLKTYRQCCVGTELVDWMIQQTSCVHSRTQAVGMWQVLLEDGVLNHVDQERHFQDKYLFYRFLDDEREDAPLPTEEEKKECDEELQDTMLLLSQMGPDAHMRMILRKPPGQRTVDDLEIIYDELLHIKALSHLSTTVKRELAGVLIFESHAKGGTVLFNQGEEGTSWYIILKGSVNVVIYGKGVVCTLHEGDDFGKLALVNDAPRAASIVLREDNCHFLRVDKEDFNRILRDVEANTVRLKEHDQDVLVLEKVPAGNRAANQGNSQPQQKYTVMSGTPEKILEHFLETIRLEPSLNEATDSVLNDFVMMHCVFMPNTQLCPALVAHYHAQPSQGTEQERMDYALNNKRRVIRLVLQWAAMYGDLLQEDDVAMAFLEEFYVSVSDDARMMAAFKEQLPELEKIVKQISEDAKAPQKKHKVLLQQFNTGDERAQKRQPIRGSDEVLFKVYCIDHTYTTIRVPVAASVKEVISAVADKLGSGEGLIIVKMNSGGEKVVLKSNDVSVFTTLTINGRLFACPREQFDSLTPLPEQEGPTTGTVGTFELMSSKDLAYQMTTYDWELFNCVHELELIYHTFGRHNFKKTTANLDLFLRRFNEIQFWVVTEVCLCSQLSKRVQLLKKFIKIAAHCKEYKNLNSFFAIVMGLSNVAVSRLALTWEKLPSKFKKFYAEFESLMDPSRNHRAYRLTAAKLEPPLIPFMPLLIKDMTFTHEGNKTFIDNLVNFEKMRMIANTARTVRYYRSQPFNPDAAQANKNHQDVRSYVRQLNVIDNQRTLSQMSHRLEPRRP

Variants of: B1
Details: with rap1b_human RAP1B

Question: H452A was tested. Which “effect of a mutation on the interaction” value did it give?
Answer: decreasing interaction strength

Question: R886A was tested. Which “effect of a mutation on the interaction” value did it give?
Answer: decreasing interaction strength
